The target of this test is CD19 (Homo sapiens (Raji, SU-DHL-7 cells), UniProt P15391). The experiment in a line: flow cytometry on cells.
Chain of CD19 (P15391 20-556): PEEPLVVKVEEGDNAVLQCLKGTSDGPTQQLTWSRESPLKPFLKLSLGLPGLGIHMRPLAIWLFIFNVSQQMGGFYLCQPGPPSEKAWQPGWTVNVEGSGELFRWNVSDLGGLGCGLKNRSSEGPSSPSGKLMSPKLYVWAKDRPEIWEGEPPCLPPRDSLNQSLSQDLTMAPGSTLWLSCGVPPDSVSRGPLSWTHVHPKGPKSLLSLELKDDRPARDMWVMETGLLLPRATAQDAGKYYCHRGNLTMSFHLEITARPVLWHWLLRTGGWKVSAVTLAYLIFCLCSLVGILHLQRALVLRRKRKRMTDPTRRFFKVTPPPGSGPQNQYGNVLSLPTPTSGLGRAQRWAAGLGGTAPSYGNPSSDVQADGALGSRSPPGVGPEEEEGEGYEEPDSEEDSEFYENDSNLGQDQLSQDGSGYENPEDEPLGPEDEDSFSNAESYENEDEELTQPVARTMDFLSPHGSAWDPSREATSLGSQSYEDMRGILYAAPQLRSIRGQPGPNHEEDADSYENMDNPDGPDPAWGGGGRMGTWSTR

B1: aCD19A (anti-CD19-A192) Nanoworm (scFv, V domains shown)
VH: QVQLQQSGAELVRPGSSVKISCKASGYAFSSYWMNWVKQRPGQGLEWIGQIWPGDGDTNYNGKFKGKATLTADESSSTAYMQLSSLASEDSAVYFCARRETTTVGRYYYAMDYWGQGTTVTVSS
VL: DIQLTQSPASLAVSLGQRATISCKASQSVDYDGDSYLNWYQQIPGQPPKLLIYDASNLVSGIPPRFSGSGSGTDFTLNIHPVEKVDAATYHCQQSTEDPWTFGGGTKLEIK
B1: the binding result is listed as “binds”.

The values above are taken from paper PMC8386582 (Biomaterials, 2020).
